{"source": "paper PMC3025578", "key": {"OkrAI [1]": {"molecular_target": "T1, OkrAI (Oceanospirillum kriegii, UniProt E2JKI3 1-194)", "T1 sequence": "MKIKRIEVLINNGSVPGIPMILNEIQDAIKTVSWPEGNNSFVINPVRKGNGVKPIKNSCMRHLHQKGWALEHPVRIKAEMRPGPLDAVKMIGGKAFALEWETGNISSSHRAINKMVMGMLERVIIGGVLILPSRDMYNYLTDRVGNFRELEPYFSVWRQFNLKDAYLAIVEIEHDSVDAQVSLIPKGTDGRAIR", "experiment": "X-ray crystallography"}, "OkrAI [2]": {"molecular_target": "T1, OkrAI", "experiment": "fluorescence anisotropy"}, "BamHI": {"molecular_target": "T2, BamHI (Bacillus amyloliquefaciens, UniProt P23940 1-213)", "T2 sequence": "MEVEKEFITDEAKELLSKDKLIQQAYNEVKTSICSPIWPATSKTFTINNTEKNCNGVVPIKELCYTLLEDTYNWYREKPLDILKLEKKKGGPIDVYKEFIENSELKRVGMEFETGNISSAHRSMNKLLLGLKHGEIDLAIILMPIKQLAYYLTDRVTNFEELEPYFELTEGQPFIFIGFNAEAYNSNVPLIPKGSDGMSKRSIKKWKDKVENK", "experiment": "fluorescence anisotropy"}}, "data": [{"binder": "palindromic 12-mer (dsDNA) DNA 1: TATGGATCCATA DNA 2: TATGGATCCATA", "values": [{"measurement": "binding result", "setting": "OkrAI [1]", "value": "binds"}]}, {"binder": "20-mer cognate duplex (dsDNA) DNA 1: TATGAGCGGATCCTTACGAG DNA 2: CTCGTAAGGATCCGCTCATA", "values": [{"measurement": "Kd", "setting": "OkrAI [2]", "value": 12.9, "unit": "nM"}, {"measurement": "Kd", "setting": "BamHI", "value": 8.3, "unit": "nM"}]}]}
